Assays:
[1] = test system: N=C(N)NCCC[C@H](N)C(=O)Nc1ccc([N+](=O)[O-])cc1; assay: purified protein, by the assay type; conditions: other: aa-pNA varied, 3 mM MnCl2, 100 nM PaPepA, pH 8.0, 25 °C, pH 8.0
[2] = test system: CC(C)C[C@H](N)C(=O)Nc1ccc([N+](=O)[O-])cc1; assay: purified protein, by the assay type; conditions: 25.0 °C

With “PaPepA (Pseudomonas aeruginosa UCBPP-PA14)” the Km [1] was 120 ± 20 µM, the kcat [1] was 0.052 s⁻¹ and the kcat/Km [1] was 440 M⁻¹ s⁻¹. For the same substance, the Km ([2]; other: 5 % PEG 8000, Leu-pNA varied) was 110 µM and the Km ([2]; other: H2O (0% PEG-8000), Leu-pNA varied) was 86.9 µM.
